# In patent publication US7070977:
# System: PFEK-protease D-G-6×HIS zymogen
# Sequence (chain, as listed by the source): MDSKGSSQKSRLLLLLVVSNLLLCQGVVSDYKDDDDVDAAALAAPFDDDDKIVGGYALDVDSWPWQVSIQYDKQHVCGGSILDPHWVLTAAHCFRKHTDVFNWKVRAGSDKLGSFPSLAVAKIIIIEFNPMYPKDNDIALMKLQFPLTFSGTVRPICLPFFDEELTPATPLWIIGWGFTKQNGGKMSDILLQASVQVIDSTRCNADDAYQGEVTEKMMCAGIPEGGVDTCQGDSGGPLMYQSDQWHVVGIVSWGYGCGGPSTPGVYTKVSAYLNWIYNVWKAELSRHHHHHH
substance,measurement,value
enterokinase,cleavage and activation of the zymogen (SDS-PAGE mobility shift and Western blot),This demonstrates the quantitative cleavage of the expressed and purified zymogen to generate the processed and activated protease
